Measured values as given in US20180117114A1, “PEPTIDES THAT MODULATE THE EFFECT OF THE CRMP: NEUROFIBROMIN COMPLEX ON SYNAPTIC TRANSMISSION” (Indiana University Research and Technology Coporation, priority 2015, published 2018).

Assays:
[1] = target: T1, CaV2.2 (Homo sapiens, UniProt Q00975); experiment: CaV2.2 surface staining in transfected HEK293 cells expressing CaV2.2; format: cell-based; details: HEK293 cells expressing CaV2.2, transiently transfected with EGFP-fused plasmids
T1 construct: expressed in transfected cells; host or cells: HEK293 cells expressing CaV2.2
T1 sequence (Q00975 whole entry, the tested form may be a part): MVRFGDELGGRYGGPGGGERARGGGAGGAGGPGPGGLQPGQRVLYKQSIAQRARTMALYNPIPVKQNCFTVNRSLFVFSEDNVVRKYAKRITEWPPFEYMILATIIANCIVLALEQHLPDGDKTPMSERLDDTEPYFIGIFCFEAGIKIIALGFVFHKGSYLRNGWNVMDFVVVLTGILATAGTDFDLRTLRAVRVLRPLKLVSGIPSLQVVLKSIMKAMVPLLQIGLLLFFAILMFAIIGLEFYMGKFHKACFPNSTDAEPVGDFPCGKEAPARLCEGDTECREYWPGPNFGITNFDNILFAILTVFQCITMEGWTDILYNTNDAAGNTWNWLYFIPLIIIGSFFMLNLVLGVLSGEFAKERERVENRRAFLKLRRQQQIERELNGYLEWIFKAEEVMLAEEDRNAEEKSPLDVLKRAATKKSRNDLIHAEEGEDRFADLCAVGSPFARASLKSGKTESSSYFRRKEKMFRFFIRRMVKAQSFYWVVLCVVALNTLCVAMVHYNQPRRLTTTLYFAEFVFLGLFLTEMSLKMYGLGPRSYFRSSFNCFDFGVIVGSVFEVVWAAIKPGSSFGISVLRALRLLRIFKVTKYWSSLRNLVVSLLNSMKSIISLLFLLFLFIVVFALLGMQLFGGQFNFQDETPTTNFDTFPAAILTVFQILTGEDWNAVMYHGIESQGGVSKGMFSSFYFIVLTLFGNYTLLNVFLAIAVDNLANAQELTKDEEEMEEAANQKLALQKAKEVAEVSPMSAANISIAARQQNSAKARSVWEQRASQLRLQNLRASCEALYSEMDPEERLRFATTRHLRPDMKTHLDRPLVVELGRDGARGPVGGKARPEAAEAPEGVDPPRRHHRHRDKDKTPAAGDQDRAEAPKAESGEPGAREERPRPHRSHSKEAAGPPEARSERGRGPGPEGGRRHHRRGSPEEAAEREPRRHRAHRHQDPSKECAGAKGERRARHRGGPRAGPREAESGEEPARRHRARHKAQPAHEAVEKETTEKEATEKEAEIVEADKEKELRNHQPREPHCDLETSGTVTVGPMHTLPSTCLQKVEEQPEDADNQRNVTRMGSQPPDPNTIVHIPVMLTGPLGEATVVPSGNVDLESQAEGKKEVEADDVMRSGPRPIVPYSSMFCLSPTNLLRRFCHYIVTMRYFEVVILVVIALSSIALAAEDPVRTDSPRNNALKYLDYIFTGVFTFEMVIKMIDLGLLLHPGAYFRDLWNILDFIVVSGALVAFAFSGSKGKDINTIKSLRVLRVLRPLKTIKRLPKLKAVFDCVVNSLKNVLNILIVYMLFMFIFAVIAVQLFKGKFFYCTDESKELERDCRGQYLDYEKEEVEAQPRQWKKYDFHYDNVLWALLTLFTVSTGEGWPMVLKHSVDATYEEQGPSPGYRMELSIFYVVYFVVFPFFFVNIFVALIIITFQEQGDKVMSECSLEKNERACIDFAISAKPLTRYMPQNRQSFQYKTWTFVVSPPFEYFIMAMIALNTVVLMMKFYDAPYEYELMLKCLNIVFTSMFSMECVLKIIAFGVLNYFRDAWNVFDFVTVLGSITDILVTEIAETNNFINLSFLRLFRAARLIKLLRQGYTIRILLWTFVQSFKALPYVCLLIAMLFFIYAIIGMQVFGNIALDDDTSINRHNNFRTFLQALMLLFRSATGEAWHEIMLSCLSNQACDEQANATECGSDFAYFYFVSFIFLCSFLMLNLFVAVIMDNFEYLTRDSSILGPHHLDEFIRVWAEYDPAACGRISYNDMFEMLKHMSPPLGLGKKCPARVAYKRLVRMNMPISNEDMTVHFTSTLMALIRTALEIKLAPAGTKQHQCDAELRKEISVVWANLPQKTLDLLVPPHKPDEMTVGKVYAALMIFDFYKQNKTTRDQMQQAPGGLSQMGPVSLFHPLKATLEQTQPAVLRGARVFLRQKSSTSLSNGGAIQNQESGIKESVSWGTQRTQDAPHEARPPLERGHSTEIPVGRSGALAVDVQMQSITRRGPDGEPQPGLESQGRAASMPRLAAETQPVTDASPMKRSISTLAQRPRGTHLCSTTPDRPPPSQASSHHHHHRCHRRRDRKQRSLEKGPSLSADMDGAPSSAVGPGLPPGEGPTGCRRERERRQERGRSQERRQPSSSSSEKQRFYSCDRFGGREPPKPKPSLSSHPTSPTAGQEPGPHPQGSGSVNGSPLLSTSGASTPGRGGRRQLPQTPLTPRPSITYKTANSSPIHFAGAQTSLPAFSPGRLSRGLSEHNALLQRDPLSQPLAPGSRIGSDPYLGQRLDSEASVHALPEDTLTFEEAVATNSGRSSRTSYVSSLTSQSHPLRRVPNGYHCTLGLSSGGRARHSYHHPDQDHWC
Procedure: (§1) Recently, it was shown that CRMP-2 facilitates CaV2.2 membrane trafficking in hippocampal and sensory neurons (12, 13), the hypothesis that the CBD3 peptide would act in a dominant negative manner to inhibit this CRMP-2 mediated trafficking was tested. Plasmids containing full-length CRMP-2 or the CBD3 peptide fused to enhanced green fluorescent protein (EGFP) were transiently transfected into human embryonic kidney 293 (HEK293) cells expressing CaV2.2. […] Since CBD3 peptide expression was sufficient in preventing forward trafficking of CaV2.2, it is possible that this would result in loss of currents via these channels. To test this, neurons were transfected with full-length CRMP-2 or CBD3 peptide and measured CaV2.2 currents 2 days post-transfection using whole-cell voltage clamp electrophysiology. Expression of CBD3 reduced peak Ca^2+ current density by ˜64% compared to CRMP-2 neurons (FIGS. 2C and 2D).

[2] = tested on: CaV2.2; experiment: CaV2.2 currents in transfected neurons by whole-cell voltage clamp electrophysiology; format: cell-based; details: compared to CRMP-2 neurons; 2 days post-transfection
Procedure: as §1

[3] = target: T2, CRMP-2 (Mus musculus, UniProt O08553); experiment: SPOTS blot of neurofibromin C-terminus peptides overlaid with mouse brain lysate, probed with CRMP-2 antibodies; format: binding; details: 15-mers, three CRMP-2 antibodies, FIG. 4
T2 construct: overlaid with wild-type mouse brain lysate in NF1 solubilization buffer; from tissue; host or cells: wild-type mouse brain lysate
Procedure: FIG. 4 presents plot of mean binding of CRMP-2 to neurofibromin versus peptide blot position. Neurofibromin peptides (15-mers) were spotted onto a SPOTS blot membrane from amino acids 2260-2818 of […], a region where neurofibromin has been reported to bind CRMP-2. The blots were blocked, then overlaid with wild-type mouse brain lysate in NF1 solubilization buffer, washed briefly, then incubated with poly CRMP-2 (Sigma) or mono CRMP-2+poly CRMP-2 phospho Ser522 and Ser555 antibodies. The blots were scanned (Licor) and the spot intensity normalized to the maximum intensity in each series. The normalized data was then averaged and the mean+/−SEM is shown in the graph above (n=3).
Referring now to FIG. 4, peptides encompassing the C-terminus of neurofibromin were spotted with CRMP-2 and the resulting blot was probed with three different CRMP-2 antibodies. […] These peptides are: SEQ ID NO: 1, RVSHGQIKQIIRILS; SEQ ID NO: 2, KGYRHPSPAIVARTV, and SEQ ID NO: 3, YLQSFGFNGLWRFAG. In order to facilitate their entry into cells, each peptide may be fused to a portion of the cell-membrane transduction domain of the human immunodeficiency virus-type 1 (HIV-1) transactivator of transcription (TAT) protein (SEQ ID NO: 4 and/or SEQ ID NO: 6).

For “DFVYKRIKARSRLAE [CBD3 peptide, a peptide derived from a portion of the CBD3 region; expressed fused to EGFP in b74]”, the “cells exhibiting CaV2.2 surface staining” value [1] was roughly 10% and the “reduction of peak Ca^2+ current density” value [2] was roughly 64%.
In the case of “KGYRHPSPAIVARTV [SEQ ID NO: 2, a peptide encompassing a portion of the C-terminus of neurofibromin]”, the “CRMP-2 binding to neurofibromin peptides (normalized spot intensity)” value (from here on “CRMP-2 binding … (normalized spot intensity)”) [3] is reported as “peaks”.
In the case of “RVSHGQIKQIIRILS [SEQ ID NO: 1, a peptide encompassing a portion of the C-terminus of neurofibromin]”, the “CRMP-2 binding … (normalized spot intensity)” value [3] is reported as “peaks”.
With “YLQSFGFNGLWRFAG [SEQ ID NO: 3, a peptide encompassing a portion of the C-terminus of neurofibromin]” the “CRMP-2 binding … (normalized spot intensity)” value [3] was “peaks”.
